Reference: US20130243795A1 (Janssen / Centocor, published 2013)
Positions count from the first letter of the chain named.

T1: Human CD27 ECD truncated (ECD 1-121, cleavage site, His6) (human)
T1 construct: also called human CD27 ECD with His Tag; CD27-His
T1 chain: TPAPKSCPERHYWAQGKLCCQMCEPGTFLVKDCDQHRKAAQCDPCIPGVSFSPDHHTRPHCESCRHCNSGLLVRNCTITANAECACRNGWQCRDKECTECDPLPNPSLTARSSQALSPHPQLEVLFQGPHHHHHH

B1: M489 (antibody, IgG1, V domains shown)
VH: QVQLVESGGGLVKPGGSLRLSCAASGFTFSSYGMSWIRQAPGKGLEWVSYIDEGGGQTIYPDSVKGRFTISRDNAKNSLYLQMNSLRAEDTAVYYCARHRGNPFDYWGQGTLVTVSS
VL: DIQMTQSPSSLSASVGDRVTITCRASKSVSLDRWSFMHWYQQKPGKAPKLLIYLASNLESGVPSRFSGSGSGTDFTFTISSLQPEDIATYYCQHSRELPWTFGQGTKVEIK
notes: also called H227/L250
B2: M488 (antibody, IgG1, V domains shown)
VH: B1 VH
VL: B1 VL with L31E, D32G, L54V, N57R
notes: also called H227/L249
B3: M429 (antibody, IgG1, V domains shown)
VH: B1 VH
VL: B1 VL with L31H, D32V, N57K
notes: also called H227/L245
B4: M493 (antibody, IgG1, V domains shown)
VH: B1 VH with G33S, E53A, Q57F
VL: B1 VL
notes: also called H228/L250
B5: M427 (antibody, IgG1, V domains shown)
VH: B1 VH
VL: B1 VL with L31A, D32W, R33G, W34Y, L54V, N57R
notes: also called H227/L244; C27H227/C27L244
B6: M526 (antibody, IgG1, V domains shown)
VH: B1 VH with E53R, Q57V
VL: B1 VL with L31E, D32G, L54V, N57R
notes: also called H222/L249
B7: M492 (antibody, IgG1, V domains shown)
VH: B1 VH with G33S, E53A, Q57F
VL: B1 VL with L31E, D32G, L54V, N57R
notes: also called H228/L249
B8: M501 (antibody, IgG1, V domains shown)
VH: B1 VH with G33S, Y50H, E53A, Q57R, I59W
VL: B1 VL
notes: also called H231/L250
B9: F256 (Fab, V domains shown)
VH: EVQLLESGGGLVQPGGSLRLSCAASGFTFSSYTMSWVRQAPGKGLEWVSYISSGGGNTYYPDSVKGRFTISRDNSKNTLYLQMNSLRAEDTAVYYCARHRGNPFDYWGQGTLVTVSS
VL: DIQMTQSPSSLSASVGDRVTITCRASKSVSTSGYSFMHWYQQKPGKAPKLLIYVGSRLDYGVPSRFSGSGSGTDFTLTISSLQPEDFATYYCQHSRELPWTFGQGTKVEIK
notes: also called H39/L137
B10: F19 (Fab, V domains shown)
VH: B9 VH with Y50A, S52D, S53H, N57R, Y59W
VL: B9 VL with V54L, G55A, R57N, D59E, Y60S
notes: also called H41/L40
B11: F243 (Fab, V domains shown)
VH: B9 VH
VL: B9 VL with L58M, D59A, Y60F
notes: also called H39/L124
B12: F302 (Fab, V domains shown)
VH: B9 VH
VL: B1 VL with D32I, F77L, I87F
notes: also called H39/L179
B13: F291 (Fab, V domains shown)
VH: B9 VH
VL: B1 VL with L31H, D32I, F77L, I87F
notes: also called H39/L172
B14: F279 (Fab, V domains shown)
VH: B9 VH
VL: B1 VL with L31Y, D32V, F77L, I87F
notes: also called H39/L160
B15: F299 (Fab, V domains shown)
VH: B9 VH with Y50V, S52D, S53H, N57S, Y59H
VL: B9 VL with V54L, G55A, R57N, D59E, Y60S
notes: also called H192/L40
B16: F295 (Fab, V domains shown)
VH: B9 VH
VL: B9 VL with G55A, S56D, L58V, D59E, Y60V
notes: also called H39/L176
B17: F18 (Fab, V domains shown)
VH: B9 VH with Y50A, S52D, S53H, N57R
VL: B9 VL with V54L, G55A, R57N, D59E, Y60S
notes: also called H40/L40
B18: F298 (Fab, V domains shown)
VH: B9 VH with Y50A, S52D, S53G, N57A
VL: B9 VL with V54L, G55A, R57N, D59E, Y60S
notes: also called H191/L40
B19: F292 (Fab, V domains shown)
VH: B9 VH
VL: B1 VL with L31H, D32V, F77L, I87F
notes: also called H39/L173
B20: F297 (Fab, V domains shown)
VH: B9 VH with Y50T, S52D, S53R, N57S, Y59W
VL: B9 VL with V54L, G55A, R57N, D59E, Y60S
notes: also called H190/L40
B21: F57 (Fab, V domains shown)
VH: B9 VH with Y50A, S52D, S53H, N57Q, Y59L
VL: B9 VL with V54L, G55A, R57N, D59E, Y60S
notes: also called H79/L40
B22: M707 (antibody, V domains shown)
VH: B9 VH with Y50A, S52D, S53H, N57Q, Y59L
VL: B1 VL with L31H, D32V, F77L, I87F
notes: also called single-gene DNA ID 707
B23: M694 (antibody, V domains shown)
VH: B1 VH
VL: B1 VL with L31E, D32G, L54V, N57R
notes: also called single-gene DNA ID 694
B24: M695 (antibody, V domains shown)
VH: B1 VH with G33S, E53A, Q57F
VL: B1 VL with L31E, D32G, L54V, N57R
notes: also called single-gene DNA ID 695
B25: M708 (antibody, V domains shown)
VH: B9 VH with Y50V, S52D, S53H, N57S, Y59H
VL: B9 VL
notes: also called single-gene DNA ID 708
B26: M696 (antibody, V domains shown)
VH: B1 VH
VL: B1 VL with L31H, D32V, N57K
notes: also called single-gene DNA ID 696
B27: M69-derived Fab with VH H241 (Fab, V domains shown)
VH: EVQLVQSGAEVKKPGESLKISCKGSGYAFSSSWMNWVRQMPGKGLEWMGRIYGRDGDTNYSPSFQGQVTISADKSISTAYLQWSSLKASDTAMYYCARSDYYGDYGFAYWGQGTLVTVSS
VL: DIVMTQSPDSLAVSLGERATINCKASQSVDYAGDSYMNWYQQKPGQPPKLLIYAASNLESGVPDRFSGSGSGTDFTLTISSLQAEDVAVYYCQQSNEDPYTFGQGTKLEIK
notes: clone of library C27H28L2; pairing with parent L35 inferred
B28: M69-derived Fab with VH H242 (Fab, V domains shown)
VH: B27 VH with G53A, R54N
VL: B27 VL
notes: as for B27
B29: M69-derived Fab with VL L260 (Fab, V domains shown)
VH: B27 VH with G53P, R54G
VL: B27 VL with Y31W, D34H, Y36W, A54T
notes: clone of library C27L35L2; pairing with parent H28 inferred
B30: M69-derived Fab with VL L256 (Fab, V domains shown)
VH: B27 VH with G53P, R54G
VL: B27 VL with Y36W, A54V
notes: as for B29
B31: M69-derived Fab with VL L257 (Fab, V domains shown)
VH: B27 VH with G53P, R54G
VL: B27 VL with Y36W, A54T, Q83L
notes: as for B29
B32: M69-derived Fab with VL L255 (Fab, V domains shown)
VH: B27 VH with G53P, R54G
VL: B27 VL with Y36F
notes: clone recovered from the CDR-L1 libraries of L35; pairing with the parent H28 heavy chain inferred
B33: M69-derived Fab with VH H245 (Fab, V domains shown)
VH: B27 VH with G8V, G53S
VL: B27 VL
notes: as for B27
B34: M69-derived Fab with VH H243 (Fab, V domains shown)
VH: B27 VH with R54G
VL: B27 VL
notes: as for B27
B35: M69-derived Fab with VH H244 (Fab, V domains shown)
VH: B27 VH with G53S, R54G
VL: B27 VL
notes: as for B27
B36: M69-derived Fab with VL L261 (Fab, V domains shown)
VH: B27 VH with G53P, R54G
VL: B27 VL with D34S, Y36F, A54E
notes: as for B29

The binders below were run against T2, Human CD27, full length on the cell surface (human, UniProt P26842 21-260) (assay: cell-based or functional assay).
T2 sequence (P26842 21-260 H233R): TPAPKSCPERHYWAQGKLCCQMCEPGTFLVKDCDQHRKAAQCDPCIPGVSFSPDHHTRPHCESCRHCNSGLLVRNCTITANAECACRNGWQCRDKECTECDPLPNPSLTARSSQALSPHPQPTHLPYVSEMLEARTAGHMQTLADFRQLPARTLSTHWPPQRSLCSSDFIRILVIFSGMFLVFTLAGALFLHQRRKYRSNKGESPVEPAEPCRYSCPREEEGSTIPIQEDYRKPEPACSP

Row | NFkB IC50 | Binder
1 | 41 pM | B1
2 | 23 pM | B2
3 | 42 pM | B3
4 | 14 pM | B4
5 | 19 pM | B5
6 | 6 pM | B6
7 | 15 pM | B7
8 | 4 pM | B8

What follows are binders tested against T3, Human CD27 ECD (ECD 1-173, His6) (human, UniProt P26842 21-193, biotinylated on amine residues (NHS-ester) where used biotinylated) (assay: single point Fab ELISA).
T3 construct: also called biotinylated human CD27 ECD

Row | binding result | Binder
9 | binds | B9
10 | binds | B10
11 | binds | B11
12 | binds | B12
13 | binds | B13
14 | binds | B14
15 | binds | B15
16 | binds | B16
17 | binds | B17
18 | binds | B18
19 | binds | B19
20 | binds | B20
21 | binds | B21

Biological target: T2, Human CD27, full length on the cell …
Assay: cell-based or functional assay
Remark: another data set of the same source

Row | NF-kB Assay IC50 | Binder
22 | 260 pM | B22
23 | 420 pM | B23
24 | 250 pM | B24
25 | 260 pM | B25
26 | 330 pM | B26

These binders were tested against T4, Human CD27 ECD, monomeric soluble (construct limits not stated) (human, UniProt P26842 20-191) (assay: Biacore SPR, purified mAb).
T4 construct: extracellular domain; target of the Biacore assays; also called monomeric soluble CD27; CD27-His
T4 sequence (P26842 20-191): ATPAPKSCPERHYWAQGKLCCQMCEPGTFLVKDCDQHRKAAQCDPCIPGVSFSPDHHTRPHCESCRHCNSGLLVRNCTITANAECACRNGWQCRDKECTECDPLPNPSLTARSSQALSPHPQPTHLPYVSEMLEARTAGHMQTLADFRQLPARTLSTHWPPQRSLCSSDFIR

Row | Kd | koff | kon | Binder
27 | 0.213 nM | 0.000124 s⁻¹ | 585000 M⁻¹ s⁻¹ | B22
28 | 0.105 nM | 7.6e-05 s⁻¹ | 480000 M⁻¹ s⁻¹ | B23
29 | 0.202 nM | 0.00017 s⁻¹ | 510000 M⁻¹ s⁻¹ | B24
30 | 0.35 nM | 0.000225 s⁻¹ | 643000 M⁻¹ s⁻¹ | B25
31 | 0.057 nM | 2.1e-05 s⁻¹ | 370000 M⁻¹ s⁻¹ | B26

The binders below were run against T4, Human CD27 ECD, monomeric soluble … (assay: Biacore SPR, purified mAb, CD27 ECD).
Experimental: The eight variant mAbs and the HFR parent were evaluated for their affinity to CD27 ECD by BIAcore and their IC₅₀ in the κβ-reporter assay. Kinetic constants and affinity were measured by BIAcore.

Row | Kd | Binder
32 | 0.0241 nM | B1
33 | 0.0394 nM | B2
34 | 0.0304 nM | B3
35 | 0.145 nM | B4
36 | 0.0417 nM | B5
37 | 0.171 nM | B6
38 | 0.142 nM | B7
39 | 0.0742 nM | B8

The binders below were run against T3, Human CD27 ECD (ECD 1-173, His6) (assay: Fab ELISA; Fab captured by anti-Fd, biotinylated CD27 ECD at 0.2 nM).
Experimental: For follow-up screening, DNA was prepared from glycerol stocks of phage panning rounds and the pIX gene was excised by NheI/SpeI digestion. After ligation, the DNA was transformed into TG-1 cells and grown on LB/Agar plates overnight. The next day, colonies were picked, grown overnight, and the cultures used for (i) colony PCR and sequencing of the V-regions, and (ii) induction of Fab production. For Fab production, the overnight culture was diluted 10-100 fold in new media and grown for 5-6 hours at 37 degrees C. Fab production was induced by the addition of fresh media containing IPTG and the cultures were grown overnight at 30 degrees C. The following day, the cultures were spun down and the supernatants, containing the soluble Fab proteins, were used for Fab ELISA. For the ELISA, the soluble Fab proteins were captured onto plates by a polyclonal anti-Fd(CH1) antibody. After washing and blocking, biotinylated human CD27 ECD was added at 0.2 nM concentration. This concentration enables ranking of the Fab variants, defined as percent binding of the parent, in which the parent Fab, present as a control in all plates, is defined as 100% binding. The biotinylated CD27 ECD was detected by HRP-conjugated streptavidin and chemiluminescence read in a plate reader. At this concentration of CD27, ranking of the Fab variants, normalized to the parent Fab, is possible.

Row | percent binding of the parent | Binder
40 | ≥ 100% | B27
41 | ≥ 100% | B28
42 | ≥ 100% | B29
43 | ≥ 100% | B30
44 | ≥ 100% | B31
45 | ≥ 100% | B32
46 | ≥ 100% | B33
47 | ≥ 100% | B34
48 | ≥ 100% | B35
49 | ≥ 100% | B36

Biological target: T1, Human CD27 ECD truncated (ECD 1-121, …)
Assay: ELISA signal for binding to CD27, initial small culture supernatants

Row | ELISA signal | Binder
50 | 0.96 | B1
51 | 0.92 | B2
52 | 0.86 | B3
53 | 0.85 | B4
54 | 0.93 | B5
55 | 0.69 | B6
56 | 0.77 | B7
57 | 0.77 | B8
